Experimental data as given in patent US20180230200A1 (CITY OF HOPE, published 2018).

Tests used:
[1] = target: T1, UL128 expressed from MVA in BHK-21 cells (human cytomegalovirus, UniProt P16837 28-171); experiment: intracellular FC, MVA-infected BHK-21
T1 construct: whole, on cells
T1 sequence: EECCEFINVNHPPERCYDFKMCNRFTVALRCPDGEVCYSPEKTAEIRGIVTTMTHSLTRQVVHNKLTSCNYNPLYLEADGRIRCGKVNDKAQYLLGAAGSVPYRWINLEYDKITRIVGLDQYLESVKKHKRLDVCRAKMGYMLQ

[2] = target: T2, UL130 expressed from MVA in BHK-21 cells (human cytomegalovirus, UniProt P16772 1-214); experiment: intracellular FC, MVA-infected BHK-21
T2 construct: whole, on cells

[3] = target: T3, UL131A expressed from MVA in BHK-21 cells (human cytomegalovirus, UniProt F5HET4 19-129); experiment: intracellular FC, MVA-infected BHK-21
T3 construct: whole, on cells

[4] = target: T4, UL128/UL130 co-expressed from MVA in BHK-21 cells (human cytomegalovirus, UniProt P16837 28-171; P16772 1-214); experiment: intracellular FC, MVA-infected BHK-21
T4 construct: whole, on cells

[5] = target: T5, UL128/UL131A co-expressed from MVA in BHK-21 cells (human cytomegalovirus, UniProt P16837 28-171; F5HET4 19-129); experiment: intracellular FC, MVA-infected BHK-21
T5 construct: whole, on cells

[6] = target: T6, UL130/UL131A co-expressed from MVA in BHK-21 cells (human cytomegalovirus, UniProt P16772 1-214; F5HET4 19-129); experiment: intracellular FC, MVA-infected BHK-21
T6 construct: whole, on cells

[7] = target: T7, UL128/UL130/UL131A co-expressed from MVA in BHK-21 cells (human cytomegalovirus, UniProt P16837 28-171; P16772 1-214; F5HET4 19-129); experiment: intracellular FC, MVA-infected BHK-21
T7 construct: whole, on cells

gH of HCMV strain Towne = target: T8, gH of HCMV strain Towne (human cytomegalovirus strain Towne, UniProt P17176 30-742); experiment: immunoblot, lysates of HCMV-infected MRC-5
T8 sequence: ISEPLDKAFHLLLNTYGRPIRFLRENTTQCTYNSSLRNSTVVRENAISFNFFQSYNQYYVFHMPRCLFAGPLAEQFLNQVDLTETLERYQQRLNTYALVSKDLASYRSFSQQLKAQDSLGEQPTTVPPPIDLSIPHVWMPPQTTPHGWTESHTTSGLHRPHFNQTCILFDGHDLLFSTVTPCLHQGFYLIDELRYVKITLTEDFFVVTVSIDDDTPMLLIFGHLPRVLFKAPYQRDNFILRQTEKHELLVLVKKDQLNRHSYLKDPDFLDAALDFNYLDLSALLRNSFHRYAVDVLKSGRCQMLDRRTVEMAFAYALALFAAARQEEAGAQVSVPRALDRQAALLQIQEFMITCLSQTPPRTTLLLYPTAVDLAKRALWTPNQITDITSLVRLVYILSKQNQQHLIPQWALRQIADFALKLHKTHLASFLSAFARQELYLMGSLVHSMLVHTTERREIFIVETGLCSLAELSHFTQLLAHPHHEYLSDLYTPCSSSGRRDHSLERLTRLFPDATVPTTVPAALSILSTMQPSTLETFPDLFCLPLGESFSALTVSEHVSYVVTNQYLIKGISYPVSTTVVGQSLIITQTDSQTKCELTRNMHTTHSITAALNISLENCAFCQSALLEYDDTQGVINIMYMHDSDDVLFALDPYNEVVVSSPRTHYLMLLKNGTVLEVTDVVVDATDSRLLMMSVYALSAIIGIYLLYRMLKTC

[8] = target: T9, gH/gL/UL128/UL130/UL131A pentamer complex expressed from MVA-PC in BHK-21 cells (human cytomegalovirus, UniProt P12824 24-743; P16832 31-278; P16837 28-171; P16772 1-214; F5HET4 19-129); experiment: FC competition, MVA-PC BHK-21; unlabelled row Ab; competitor: biotinylated 1B2
T9 construct: whole, on cells

[9] = target: T9, gH/gL/UL128/UL130/UL131A pentamer …; experiment: FC competition, MVA-PC BHK-21; unlabelled row Ab; competitor: biotinylated 12E2
[10] = target: T9, gH/gL/UL128/UL130/UL131A pentamer …; experiment: FC competition, MVA-PC BHK-21; unlabelled row Ab; competitor: biotinylated 13B5
[11] = target: T9, gH/gL/UL128/UL130/UL131A pentamer …; experiment: FC competition, MVA-PC BHK-21; unlabelled row Ab; competitor: biotinylated 21E9; also: test concentration or dose not given here
[12] = target: T9, gH/gL/UL128/UL130/UL131A pentamer …; experiment: FC competition, MVA-PC BHK-21; unlabelled row Ab; competitor: biotinylated 18F10
[13] = target: T9, gH/gL/UL128/UL130/UL131A pentamer …; experiment: FC competition, MVA-PC BHK-21; unlabelled row Ab; competitor: biotinylated 54E11
[14] = target: T9, gH/gL/UL128/UL130/UL131A pentamer …; experiment: FC competition, MVA-PC BHK-21; unlabelled row Ab; competitor: biotinylated 62-11; also: test concentration or dose not given here

B1: 18F10 (antibody, V domains shown)
VH: QVTLKESGPGILQPSQTLSLTCSFSGFSLSTYGIGIGWIRQPSGKGLEWLAHIWWNDNKNYNTALKSRLTISKDPSNNQVFLKIASVDTADTATYFCARTGYFDVWGAGTTVTVSS
VL: DVVLTQTPLSLPVSLGDQVSISCSSSQSLVHSNGNTYIHWYLQKPGQSPKLLIYTVSNRFSGVPDRFSGSGSGTDFTLKISRVEAEDLGLYFCSQSTHVPYTFGGGTKLEIK
notes: also called NAb 18F10
B1: no binding [1]; no binding [2]; no binding [3]. B1: no binding [4]; no binding [5]; no binding [6]. For the same binder, the binding result [7] was “no binding”, the binding result (gH of HCMV strain Towne) was “no binding (tested: 10 µg/ml)” and the “Binding Inhibition (%)” value [8] was 0%. For the same binder, the “Binding Inhibition (%)” value [9] was 0%, the “Binding Inhibition (%)” value [10] was 0% and the “Binding Inhibition (%)” value [11] was 0%. For the same binder, the “Binding Inhibition (%)” value [12] was 100%, the “Binding Inhibition (%)” value [13] was 0% and the “Binding Inhibition (%)” value [14] was 0%.
